Experimental data reported in article PMC6428923 (Biophysical Journal, 2019).
Where no end group is shown, it is not given here. The star is where a group is joined. Farnesyl = CC(C)=CCC/C(C)=C/CC/C(C)=C/C*

Columns and labels:
[1] = biological target: calmodulin (CaM), full-length, amino acids 2-148 (human, UniProt P0DP23 2-148); assay: ITC
[2] = biological target: calmodulin (CaM), full-length, amino acids 2-148 (human, UniProt P0DP23 2-148); assay: ITC; remark: listed apart in the source

Binder | Kd [1] [nM] | Kd [2] [nM]
KSKTKC(geranyl) (not fully specified (C-terminus); also: methylated (site not given here)) [KSKTKC-geranyl methylated (KSKTKC-GMe)] |  | 3000
KSKTKC (not fully specified; cysteine with a five-carbon prenyl group, methylated (PMe)) [KSKTKC-prenyl methylated (KSKTKC-PMe)] |  | 30000

The next lines start with the values.

Kd [1] [nM] | Kd [2] [nM] | Binder
300 |  | HKEKMSKDGKKKKKKSKTKC(Farnesyl)-OMe [HVR-FMe (hypervariable region of KRAS4b, farnesylated and carboxy-methylated)]
 | 400 | KSKTKC(Farnesyl)-OMe [KSKTKC-FMe]
